This series concerns the molecule itself. The series can be described thus: SEC.

B1: regulatory subunit of Thermotoga maritima acetohydroxyacid synthase (TmAHAS), TM0549 (natural protein)
chain: MTDQIREHLVSMLVHNKPGVMRKVANLFARRGFNISSITVGESETPGLSRLVIMVKGDDKTIEQIEKQAYKLVEVVKVTPIDPLPENRVEREMALIKVRFDEDKQEIFQLVEIFRGKIIDVSREGAIIEITGARSKVEAFINLLPQKQVEEIARTGIVAMNRWNVKEGEGF
As to B1, the “stoichiometry N” value worked out at 2.

Source of the values: publication PMC5668897 (Biochemistry and Biophysics Reports, 2015).
